# US20260117202A1
# Experiments:
# Assay in all cases: sandwich ELISA, AM14 coated, supernatant 1:10
# FHM-2 (RSV strain A2) = FHM-2 (RSV strain A2) (UniProt P03420)
# FHM-1 (RSV strain A2) = FHM-1 (RSV strain A2) (UniProt P03420)
# FHS-51 (RSV strain A2) = FHS-51 (RSV strain A2) (UniProt P03420)
# FHS-45 (RSV strain A2) = FHS-45 (RSV strain A2) (UniProt P03420)
# FHS-57 (RSV strain A2) = FHS-57 (RSV strain A2) (UniProt P03420)
# FHM-20 (RSV strain A2) = FHM-20 (RSV strain A2) (UniProt P03420)
# FHS-70 (RSV strain A2) = FHS-70 (RSV strain A2) (UniProt P03420)
# FHM-12 (RSV strain A2) = FHM-12 (RSV strain A2) (UniProt P03420)
# FHS-46 (RSV strain A2) = FHS-46 (RSV strain A2) (UniProt P03420)
# FHS-24 (RSV strain A2) = FHS-24 (RSV strain A2) (UniProt P03420)
# FHS-40 (RSV strain A2) = FHS-40 (RSV strain A2) (UniProt P03420)
# FHM-10 (RSV strain A2) = FHM-10 (RSV strain A2) (UniProt P03420)
# FHM-11 (RSV strain A2) = FHM-11 (RSV strain A2) (UniProt P03420)
# FHS-58 (RSV strain A2) = FHS-58 (RSV strain A2) (UniProt P03420)
# FHS-47 (RSV strain A2) = FHS-47 (RSV strain A2) (UniProt P03420)
# FHS-96 (RSV strain A2) = FHS-96 (RSV strain A2) (UniProt P03420)
# FHS-14 (RSV strain A2) = FHS-14 (RSV strain A2) (UniProt P03420)
# FHS-28 (RSV strain A2) = FHS-28 (RSV strain A2) (UniProt P03420)
# FHS-38 (RSV strain A2) = FHS-38 (RSV strain A2) (UniProt P03420)
# FHS-36 (RSV strain A2) = FHS-36 (RSV strain A2) (UniProt P03420)
# FHS-73 (RSV strain A2) = FHS-73 (RSV strain A2) (UniProt P03420)
# FHS-75 (RSV strain A2) = FHS-75 (RSV strain A2) (UniProt P03420)
# FHS-30 (RSV strain A2) = FHS-30 (RSV strain A2) (UniProt P03420)
# FHS-33 (RSV strain A2) = FHS-33 (RSV strain A2) (UniProt P03420)
# FHS-80 (RSV strain A2) = FHS-80 (RSV strain A2) (UniProt P03420)
# FHM-21 (RSV strain A2) = FHM-21 (RSV strain A2) (UniProt P03420)
# FHS-76 (RSV strain A2) = FHS-76 (RSV strain A2) (UniProt P03420)
# FHS-95 (RSV strain A2) = FHS-95 (RSV strain A2) (UniProt P03420)
# FHS-53 (RSV strain A2) = FHS-53 (RSV strain A2) (UniProt P03420)
# FHS-4 (RSV strain A2) = FHS-4 (RSV strain A2) (UniProt P03420)
# FHS-63 (RSV strain A2) = FHS-63 (RSV strain A2) (UniProt P03420)
# FHS-5 (RSV strain A2) = FHS-5 (RSV strain A2) (UniProt P03420)
# FHS-21 (RSV strain A2) = FHS-21 (RSV strain A2) (UniProt P03420)
# FHS-82 (RSV strain A2) = FHS-82 (RSV strain A2) (UniProt P03420)
# FHS-19 (RSV strain A2) = FHS-19 (RSV strain A2) (UniProt P03420)
# FHS-27 (RSV strain A2) = FHS-27 (RSV strain A2) (UniProt P03420)
# FHS-83 (RSV strain A2) = FHS-83 (RSV strain A2) (UniProt P03420)
# FHS-74 (RSV strain A2) = FHS-74 (RSV strain A2) (UniProt P03420)
# FHM-14 (RSV strain A2) = FHM-14 (RSV strain A2) (UniProt P03420)
# FHS-72 (RSV strain A2) = FHS-72 (RSV strain A2) (UniProt P03420)
# FHS-49 (RSV strain A2) = FHS-49 (RSV strain A2) (UniProt P03420)
substance,measurement,setting,value
AM14 monoclonal antibody,OD value,FHM-2 (RSV strain A2),2.23 OD
same,OD value,FHM-1 (RSV strain A2),2.29 OD
same,OD value,FHS-51 (RSV strain A2),0.006 OD
same,OD value,FHS-45 (RSV strain A2),0.12 OD
same,OD value,FHS-57 (RSV strain A2),0.007 OD
same,OD value,FHM-20 (RSV strain A2),0.607 OD
same,OD value,FHS-70 (RSV strain A2),0.007 OD
same,OD value,FHM-12 (RSV strain A2),2.13 OD
same,OD value,FHS-46 (RSV strain A2),2.41 OD
same,OD value,FHS-24 (RSV strain A2),0.01 OD
same,OD value,FHS-40 (RSV strain A2),0.009 OD
same,OD value,FHM-10 (RSV strain A2),0.01 OD
same,OD value,FHM-11 (RSV strain A2),0.006 OD
same,OD value,FHS-58 (RSV strain A2),0.011 OD
same,OD value,FHS-47 (RSV strain A2),1.32 OD
same,OD value,FHS-96 (RSV strain A2),0.011 OD
same,OD value,FHS-14 (RSV strain A2),2.61 OD
same,OD value,FHS-28 (RSV strain A2),0.008 OD
same,OD value,FHS-38 (RSV strain A2),0.008 OD
same,OD value,FHS-36 (RSV strain A2),0.009 OD
same,OD value,FHS-73 (RSV strain A2),0.016 OD
same,OD value,FHS-75 (RSV strain A2),0.028 OD
same,OD value,FHS-30 (RSV strain A2),0.009 OD
same,OD value,FHS-33 (RSV strain A2),0.005 OD
same,OD value,FHS-80 (RSV strain A2),0.005 OD
same,OD value,FHM-21 (RSV strain A2),0.007 OD
same,OD value,FHS-76 (RSV strain A2),0.821 OD
same,OD value,FHS-95 (RSV strain A2),0.007 OD
same,OD value,FHS-53 (RSV strain A2),0.008 OD
same,OD value,FHS-4 (RSV strain A2),2.26 OD
same,OD value,FHS-63 (RSV strain A2),0.006 OD
same,OD value,FHS-5 (RSV strain A2),2.24 OD
same,OD value,FHS-21 (RSV strain A2),0.008 OD
same,OD value,FHS-82 (RSV strain A2),0.063 OD
same,OD value,FHS-19 (RSV strain A2),0.007 OD
same,OD value,FHS-27 (RSV strain A2),0.005 OD
same,OD value,FHS-83 (RSV strain A2),0.064 OD
same,OD value,FHS-74 (RSV strain A2),0.023 OD
same,OD value,FHM-14 (RSV strain A2),0.008 OD
same,OD value,FHS-72 (RSV strain A2),0.007 OD
same,OD value,FHS-49 (RSV strain A2),1.96 OD
